Publication PMC8913847

Target: T1, IRF-3, endogenous in SeV-infected 293T cells (phosphorylated) (human (endogenous in 293T)), Q14653
T1 chain: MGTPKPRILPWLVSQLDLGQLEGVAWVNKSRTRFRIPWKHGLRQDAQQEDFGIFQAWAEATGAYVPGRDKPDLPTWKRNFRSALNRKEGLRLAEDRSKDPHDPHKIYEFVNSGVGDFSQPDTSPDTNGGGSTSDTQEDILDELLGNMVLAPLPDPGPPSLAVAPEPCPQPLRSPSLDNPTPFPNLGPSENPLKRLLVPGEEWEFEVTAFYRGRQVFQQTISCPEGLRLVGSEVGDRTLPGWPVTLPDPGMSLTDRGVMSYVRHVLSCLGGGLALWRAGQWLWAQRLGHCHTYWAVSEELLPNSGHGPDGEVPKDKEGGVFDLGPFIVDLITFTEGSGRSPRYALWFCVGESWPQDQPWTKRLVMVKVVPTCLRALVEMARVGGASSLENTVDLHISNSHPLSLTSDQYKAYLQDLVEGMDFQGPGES
Assay: native gel or EMSA; native PAGE (7.5% gel, 0.2% sodium deoxycholate in the upper chamber buffer) of total lysates of 293T and 293T DDX3KO cells infected with SeV for the indicated times; immunoblot for IRF-3
Conditions: remark: other sources report otherwise

stoichiometry N: 2
B1: IRF-3, endogenous in SeV-infected 293T cells (phosphorylated), Q14653 1-427 (natural protein)
chain: MGTPKPRILPWLVSQLDLGQLEGVAWVNKSRTRFRIPWKHGLRQDAQQEDFGIFQAWAEATGAYVPGRDKPDLPTWKRNFRSALNRKEGLRLAEDRSKDPHDPHKIYEFVNSGVGDFSQPDTSPDTNGGGSTSDTQEDILDELLGNMVLAPLPDPGPPSLAVAPEPCPQPLRSPSLDNPTPFPNLGPSENPLKRLLVPGEEWEFEVTAFYRGRQVFQQTISCPEGLRLVGSEVGDRTLPGWPVTLPDPGMSLTDRGVMSYVRHVLSCLGGGLALWRAGQWLWAQRLGHCHTYWAVSEELLPNSGHGPDGEVPKDKEGGVFDLGPFIVDLITFTEGSGRSPRYALWFCVGESWPQDQPWTKRLVMVKVVPTCLRALVEMARVGGASSLENTVDLHISNSHPLSLTSDQYKAYLQDLVEGMDFQGPGES
modifications: here or on the partner: phosphorylation detected with phospho-specific antibody (S396); mobility retardation suggesting phosphorylation at multiple sites; phosphorylation detected with phospho-specific antibody (S396); mobility retardation suggesting phosphorylation at multiple sites
